Data set [1] deals with HSV-1 gB730 (HSV-1 glycoprotein B ectodomain) (HSV-1) (UniProt P06437). In words: SEC-MALS.
Data set [2] concerns the molecule itself. In words: mildly denaturing SDS-PAGE.
The data set “SEC-MALS” deals with the molecule itself. Kind of data set: SEC-MALS. A general note: Size exclusion chromatography separates by hydrodynamic size, large species first.

Experimental findings from article PMC3534942 (Virology, 2012) are described below.

As a reminder, the stoichiometry N is a count of units in the complex or per binding partner. Consider “HSV-1 gB730 (HSV-1 glycoprotein B ectodomain) (from UniProt P06437 31-730) (domain or fragment)”, for which, in data set [1], the stoichiometry N turned out to be 3.

B1: HCMV gB706-CHis6 (HCMV strain AD169 glycoprotein B ectodomain, residues 25-706, C-terminal His6 tag) (domain or fragment)
chain: DPSSSTSHATSSTHNGSHTSRTTSAQTRSVYSQHVTSSEAVSHRANETIYNTTLKYGDVVGVNTTKYPYRVCSMAQGTDLIRFERNIICTSMKPINEDLDEGIMVVYKRNIVAHTFKVRVYQKVLTFRRSYAYIYTTYLLGSNTEYVAPPMWEIHHINKFAQCYSSYSRVIGGTVFVAYHRDSYENKTMQLIPDDYSNTHSTRYVTVKDQWHSRGSTWLYRETCNLNCMLTITTARSKYPYHFFATSTGDVVYISPFYNGTNRNASYFGENADKFFIFPNYTIVSDFGRPNAAPETHRLVAFLERADSVISWDIQDEKNVTCQLTFWEASERTIRSEAEDSYHFSSAKMTATFLSKKQEVNMSDSALDCVRDEAINKLQQIFNTSYNQTYEKYGNVSVFETSGGLVVFWQGIKQKSLVELERLANRSSLNITHRTRRSTSDNNTTHLSSMESVHNLVYAQLQFTYDTLRGYINRALAQIAEAWCVDQRRTLEVFKELSKINPSAILSAIYNKPIAARFMGDVLGLASCVTINQTSVKVLRDMNVKESPGRCYSRPVVIFNFANSSYVQYGQLGEDNEILLGNHRTEECQLPSLKIFIAGNSAYEYVDYLFKRMIDLSSISTVDSMIALDIDPLENTDFRVLELYSQKELRSSNVFDLEEIMREFNSYKQRVKYVEDKVVDPLPP
Regarding B1, the binding result in data set [2] is “binds”.

B2: HCMV gB706-4M (HCMV strain AD169 glycoprotein B ectodomain, residues 25-706, Y155G/I156H/Y157R/W240A) (domain or fragment)
chain: DPSSSTSHATSSTHNGSHTSRTTSAQTRSVYSQHVTSSEAVSHRANETIYNTTLKYGDVVGVNTTKYPYRVCSMAQGTDLIRFERNIICTSMKPINEDLDEGIMVVYKRNIVAHTFKVRVYQKVLTFRRSYAGHRTTYLLGSNTEYVAPPMWEIHHINKFAQCYSSYSRVIGGTVFVAYHRDSYENKTMQLIPDDYSNTHSTRYVTVKDQWHSRGSTALYRETCNLNCMLTITTARSKYPYHFFATSTGDVVYISPFYNGTNRNASYFGENADKFFIFPNYTIVSDFGRPNAAPETHRLVAFLERADSVISWDIQDEKNVTCQLTFWEASERTIRSEAEDSYHFSSAKMTATFLSKKQEVNMSDSALDCVRDEAINKLQQIFNTSYNQTYEKYGNVSVFETSGGLVVFWQGIKQKSLVELERLANRSSLNITHRTRRSTSDNNTTHLSSMESVHNLVYAQLQFTYDTLRGYINRALAQIAEAWCVDQRRTLEVFKELSKINPSAILSAIYNKPIAARFMGDVLGLASCVTINQTSVKVLRDMNVKESPGRCYSRPVVIFNFANSSYVQYGQLGEDNEILLGNHRTEECQLPSLKIFIAGNSAYEYVDYLFKRMIDLSSISTVDSMIALDIDPLENTDFRVLELYSQKELRSSNVFDLEEIMREFNSYKQRVKYVEDKVVDPLPP
modifications: N-linked glycosylation (mass difference of 22.9 kDa suggested that all 18 predicted N-linked glycosylation sites were glycosylated)
For the molecule B2, the “stoichiometry N” value in the data set “SEC-MALS” was determined as 3.
